Laboratory results taken from the RNAGym collection of RNA variant scans (doi:10.1093/molbev/msab373).

B1: Azoarcus group I ribozyme (parent)
chain: GUGCCUUGCGCCGGGAAACCACGCAAGGGAUGGUGUCAAAUUCGGCGAAACCUAAGCGCCCGCCCGGGCGUAUGGCAACGCCGAGCCAAGCUUCGGCGCCUGCGCCGAUGAAGGUGUAGAGACUAGACGGCACCCACCUAAGGCAAACGCUAUGGUGAAGGCAUAGUCCAGGGAGUGGCGAAAGUCACACAAACCGG

Variants of: B1
Assay: reverse-splicing fitness (ratio to wild type); higher = more active; in vitro selection; Mg2+ level not given
Outline: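 An in vitro group I ribozyme library with randomized positions was T7-transcribed and gel-purified. In triplicate, 10 pmol RNA in EPPS pH 7.5 was reacted with 50 pmoles of a 30-nt RNA substrate for 1 h at 37 °C across several added MgCl2 levels (1–48 mM), then stopped with EDTA. Products were reverse transcribed from a substrate-complementary primer, PCR-amplified and sequenced (HiSeq 4000). Fitness is a variant's read proportion after selection over that before, normalised to wild type.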

Variant | reverse-splicing fitness
C82U A111C A120C A145U C150G C169G U176C | 0.0066
C82U A111C A120C A145U C150G C169G U176A | 0.00759
C82U A111C A120C A145U C150G C169G U176G | 0.00558
C82U A111C A120C A145G C150U C169G U176C | 0.0151
C82U A111C A120C A145G C150U C169G U176G | 0.00547
C82U A111C A120C A145G C150U C169G U176A | 0.0115
C82G A145U C150G C169A U176A | 0.0121
C82G A145U C150G C169A U176G | 0.00553
C82G A145U C150G C169A U176C | 0.0105
C82U A111C A120C A145U C150U C169G U176G | 0.00521
C82U A111C A120C A145U C150U C169G U176A | 0.0126
C82U A111C A120C A145U C150U C169G U176C | 0.0142
C82G A145U U176A | 0.395
C82G A145U U176C | 0.405
C82G A145U U176G | 0.175
C82U A111C A120C C150G | 0.00785
C82U A111C A120C C150A | 0.00985
C82U A111C A120C A145G C150G C169U U176G | 0.007
C82U A111C A120C A145G C150G C169U U176A | 0.0111
C82U A111C A120C A145G C150G C169U U176C | 0.0122
C82U A111C A120C C150G C169A U176C | 0.00876
C82U A111C A120C C150G C169A U176A | 0.00943
C82U A111C A120C C150G C169A U176G | 0.00618
C82U A111C A120C A145G C150U | 0.0229

Variant | reverse-splicing fitness
C82U A111C A120C A145G C150A | 0.01
C82U A111C A120C A145G C150G | 0.0102
C82G A145U C150G U176G | 0.0103
C82G A145U C150G U176C | 0.0376
C82G A145U C150G U176A | 0.0361
C82U A111C A120C A145G C150U C169A U176A | 0.0123
C82U A111C A120C A145G C150U C169A U176C | 0.014
C82U A111C A120C A145G C150U C169A U176G | 0.00622
C82U A111C A120C A145U C150U C169A U176C | 0.00966
C82U A111C A120C A145U C150U C169A U176A | 0.0117
C82U A111C A120C A145U C150U C169A U176G | 0.00665
C82U A111C A120C A145G C169G U176C | 0.0254
C82U A111C A120C A145G C169G U176A | 0.0195
C82U A111C A120C A145G C169G U176G | 0.0058
C82U A111C A120C A145G C169A U176C | 0.0232
C82U A111C A120C A145G C169A U176A | 0.0198
C82U A111C A120C A145G C169A U176G | 0.00658
C82G C150A C169G U176A | 0.0179
C82G C150A C169G U176G | 0.00539
C82G C150A C169G U176C | 0.0214
C82G C169A | 0.00968
C82G C169U | 0.017
C82G C169G | 0.0111
C82U A111C A120C A145C U176A | 0.00981

Variant | reverse-splicing fitness
C82U A111C A120C A145C U176G | 0.00562
C82U A111C A120C A145C U176C | 0.0155
C82U | 0.643
C82U A111C A120C A145C C150G U176C | 0.00717
C82U A111C A120C A145C C150G U176A | 0.00512
C82U A111C A120C A145C C150G U176G | 0.00262
C82G A145U C150U | 0.321
C82U A111C A120C C150A C169G U176C | 0.0184
C82U A111C A120C C150A C169G U176A | 0.0161
C82U A111C A120C C150A C169G U176G | 0.00704
C82G C150U C169U | 0.0143
C82G C150U C169G | 0.0104
C82G C150U C169A | 0.0106
C82U A111C A120C A145C C150U C169A U176G | 0.00658
C82U A111C A120C A145C C150U C169A U176C | 0.00703
C82U A111C A120C A145C C150U C169A U176A | 0.012
C82U A111C A120C A145G C150A U176A | 0.00976
C82U A111C A120C A145G C150A U176C | 0.0208
C82U A111C A120C A145G C150A U176G | 0.00689
C82U A111C A120C A145G C150A C169U U176G | 0.00639
C82U A111C A120C A145G C150A C169U U176C | 0.0172
C82U A111C A120C A145G C150A C169U U176A | 0.0176
C82U A111C A120C A145U C150G C169U U176G | 0.00581
C82U A111C A120C A145U C150G C169U U176C | 0.0132

Variant | reverse-splicing fitness
C82U A111C A120C A145U C150G C169U U176A | 0.00839
C82U A111C A120C A145U C169U U176C | 0.0145
C82U A111C A120C A145U C169U U176G | 0.0054
C82U A111C A120C A145U C169U U176A | 0.0127
C82G U176A | 0.364
C82G U176C | 0.352
C82G U176G | 0.14
C82U A111C A120C A145U C150A C169A U176C | 0.00844
C82U A111C A120C A145U C150A C169A U176G | 0.00614
C82U A111C A120C A145U C150A C169A U176A | 0.0117
C82G A145U C150G C169U U176C | 0.0119
C82G A145U C150G C169U U176G | 0.0049
C82G A145U C150G C169U U176A | 0.00876
C82G C150G U176G | 0.00797
C82G C150G U176C | 0.0287
C82G C150G U176A | 0.0255
C82G C169A U176C | 0.0165
C82G C169A U176A | 0.0146
C82G C169A U176G | 0.00463
C82G C150G C169A | 0.00919
C82G C150G C169U | 0.00971
C82G C150G C169G | 0.00811
C82U A111C A120C A145C C150G C169U U176C | 0.0117
C82U A111C A120C A145C C150G C169U U176G | 0.00551

Variant | reverse-splicing fitness
C82U A111C A120C A145C C150G C169U U176A | 0.0102
C82U A111C A120C C150G C169U | 0.00884
C82U A111C A120C C150G C169G | 0.00626
C82U A111C A120C C150G C169A | 0.00879
C82U A111C A120C A145C C150U U176G | 0.0052
C82U A111C A120C A145C C150U U176A | 0.00836
C82U A111C A120C A145C C150U U176C | 0.0102
C82U A111C A120C A145G C150U U176G | 0.00635
C82U A111C A120C A145G C150U U176C | 0.0186
C82U A111C A120C A145G C150U U176A | 0.0113
C82U A111C A120C A145G C150A C169A U176G | 0.00718
C82U A111C A120C A145G C150A C169A U176A | 0.0163
C82U A111C A120C A145G C150A C169A U176C | 0.0198
C82U A111C A120C A145C C150G C169A U176A | 0.00661
C82U A111C A120C A145C C150G C169A U176C | 0.00704
C82U A111C A120C A145C C150G C169A U176G | 0.00633
C82U A111C A120C A145U C150A U176C | 0.0135
C82U A111C A120C A145U C150A U176G | 0.00561
C82U A111C A120C A145U C150A U176A | 0.00905
C82U A111C A120C C150A C169U U176C | 0.0181
C82U A111C A120C C150A C169U U176A | 0.0178
C82U A111C A120C C150A C169U U176G | 0.00677
C82G A145U C169G | 0.0104
C82G A145U C169A | 0.00844

Variant | reverse-splicing fitness
C82G A145U C169U | 0.0147
C82G A145U C150G C169G U176A | 0.00882
C82G A145U C150G C169G U176C | 0.00645
C82G A145U C150G C169G U176G | 0.00508
C82U A111C A120C A145C C150A U176C | 0.0116
C82U A111C A120C A145C C150A U176G | 0.00522
C82U A111C A120C A145C C150A U176A | 0.00991
C82U A111C A120C A145C | 0.0222
C82U A111C A120C A145G | 0.0265
C82U A111C A120C A145U | 0.028
C82U A111C | 0.251
C82G C169U U176A | 0.0135
C82G C169U U176G | 0.00463
C82G C169U U176C | 0.0165
C82U A111C A120C A145U C169A U176G | 0.00532
C82U A111C A120C A145U C169A U176A | 0.0107
C82U A111C A120C A145U C169A U176C | 0.0103
C82U A111C A120C A145U U176A | 0.0118
C82U A111C A120C A145U U176G | 0.00547
C82U A111C A120C A145U U176C | 0.0181
C82U A111C A120C A145C C150U C169U | 0.0108
C82U A111C A120C A145C C150U C169A | 0.00742
C82U A111C A120C A145C C150U C169G | 0.00644
C82U A111C A120C A145U C150U C169U U176C | 0.0161

Variant | reverse-splicing fitness
C82U A111C A120C A145U C150U C169U U176G | 0.00597
C82U A111C A120C A145U C150U C169U U176A | 0.0142
C82U A111C A120C A145U C150U C169G | 0.00745
C82U A111C A120C A145U C150U C169A | 0.00892
C82U A111C A120C A145U C150U C169U | 0.0107
C82U A111C A120C A145G C150G C169A U176C | 0.0116
C82U A111C A120C A145G C150G C169A U176G | 0.00708
C82U A111C A120C A145G C150G C169A U176A | 0.0111
C82G C150G C169U U176G | 0.00593
C82G C150G C169U U176C | 0.0132
C82G C150G C169U U176A | 0.00858
C82U A111C A120C A145G U176G | 0.00588
C82U A111C A120C A145G U176C | 0.0243
C82U A111C A120C A145G U176A | 0.0134
C82G C169G U176G | 0.00418
C82G C169G U176C | 0.0235
C82G C169G U176A | 0.0155
C82U A111C A120C A145G C150A C169U | 0.0103
C82U A111C A120C A145G C150A C169G | 0.00891
C82U A111C A120C A145G C150A C169A | 0.00917
C82G C150G C169G U176A | 0.00727
C82G C150G C169G U176G | 0.00511
C82G C150G C169G U176C | 0.00598
